From patent publication CN112375146A

Biological target: FMC63 scFv, His Tag
Test: SPR; FMC63 scFv as analyte at 125, 62.5, 31.25, 15.625, 7.813, 3.906 and 1.953 nM

Kd: 1.08 nM
B1: Y45克隆号抗体 (antibody, V domains shown)
VH: EVKLLESGGGLVQPGGSLKLSCAASGDFRYFQWMSWVRQAPGKGLEWIGEIDNLDSITKYTPSLKDKFIISRDNAKNTLYLQMRKVRSEDTALYYCRAYRYMYDPRWGQGTSVTVSS
VL: DIVLTQSPASLAVSLGQRATISCRASKVSSTSSGYYMHWYQQKPGQPPKLLIYALNNLESGVPARFSGSGSGTDFTLNVHPVEEEDAATYYCQTFYGSELPFGSGTKLEIK
